Patent US20050227302A1, “Induction of apoptosis via ARTS-IAP complexes” (priority 2004, published 2005)

Tests used:
K562 cells = assay: Caspase 3 activity assay in ARTS-transfected K562 cells; assay type: cell-based
Protocol: (§1) K562 and HL-60 cells were grown in RPMI 1640 medium. A549, COS-7 cells were grown in Dulbecco's modified Eagle medium (DMEM) with 4.5 grams/liter (g/L) D-glucose. All cells were grown at 37° C. in a 5% CO2 atmosphere. All media were supplemented with 10% fetal calf serum (FCS), penicillin (100 U/ml), streptomycin (100 micrograms (μg)/ml) and […] millimolar [mM]) (Biological Industries, Israel). pEF1-AU5 and pEF1-AU5-ARTS constructs were used for all ARTS transient transfection experiments. An AU5 tag was attached to the N' terminus of ARTS as described in ([…] et al, Nat Cell Biol 2: 915-921, 2000). The […] construct was generated by replacing three amino acids ([…]) at the GTP binding site, using site-directed mutagenesis (QuickChangeTM, Stratagene) with the primer: [NT] No: 1). COS-7, K562 and HL-60 cells were transiently transfected using electroporation (EasyjectTM plus-Equibio). A549 cells were transiently transfected using lipofectaminTM (Invitrogen) according to the manufacturer's protocol. The following apoptotic agents were used: TGF-beta (10 ng/ml) for 24 hours in medium containing 1% FCS; […] etoposide for 2 or 16 hours (Sigma); staurosporine (STS) ([…]) for 0-3 hours (Sigma); and arabinoside-c (ara-C, cytosar) (Pharmacia) at […] for 4 hours. In the case of transiently transfected cells, agents were added forty hours after transfections. […]

A549 cells = assay: Caspase 3 activity assay in ARTS-transfected A549 cells; assay type: cell-based
Protocol: as §1

COS-7 cells [1] = assay: Active caspase 3 immunofluorescence staining in ARTS-transfected COS-7 cells; assay type: cell-based, African Green Monkey
Protocol: as §1

XIAP [2] = target: T1, XIAP (Homo sapiens, UniProt P98170); assay: In vitro binding assay, recombinant ARTS with GST-XIAP; settings: GST-XIAP and purified recombinant ARTS protein, GST alone as negative control
T1 construct: made in house; host or cells: bacteria (pGEX-XIAP plasmid obtained from Dr. Colin S. Duckett)
T1 sequence (P98170 whole entry): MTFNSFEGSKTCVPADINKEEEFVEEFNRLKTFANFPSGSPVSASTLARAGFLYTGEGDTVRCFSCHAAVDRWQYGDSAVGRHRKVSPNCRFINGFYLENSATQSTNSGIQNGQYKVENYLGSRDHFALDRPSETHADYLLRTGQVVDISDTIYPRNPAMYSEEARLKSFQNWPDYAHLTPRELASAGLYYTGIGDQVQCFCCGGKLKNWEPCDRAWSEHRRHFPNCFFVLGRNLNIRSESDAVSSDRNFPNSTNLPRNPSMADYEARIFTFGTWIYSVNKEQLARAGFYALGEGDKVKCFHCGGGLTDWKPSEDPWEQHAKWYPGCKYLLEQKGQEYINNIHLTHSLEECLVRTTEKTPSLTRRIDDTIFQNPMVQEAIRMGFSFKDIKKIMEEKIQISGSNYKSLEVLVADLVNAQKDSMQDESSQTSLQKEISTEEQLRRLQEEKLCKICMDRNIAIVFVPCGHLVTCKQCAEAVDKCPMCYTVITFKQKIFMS
Protocol: Recombinant ARTS protein was generated with the TNT-Quick Coupled Transcription/Translation System™ (Promega) and incubated overnight at 4° C. with either recombinant GST-XIAP bound to glutathione beads, or with GST alone bound to glutathione beads, followed by Western blot with anti-ARTS or anti-GST antibody (Gibco).

XIAP [3] = assay: Co-immunoprecipitation of ARTS-XIAP complexes in COS-7 cells; assay type: cell-based, African Green Monkey; settings: un-transfected COS-7 cells, apoptosis induced with staurosporine, IP anti-ARTS
Protocol: Protein extracts were prepared with lysis buffer (150 mM NaCl, 50 mM Tris-HCl (pH 8), 1% NP-40, 0.5% deoxycholate acid) with protease inhibitors. Lysates containing equal amounts of total protein were pre-cleared overnight with 1 mg mouse IgG (Sigma) coupled with protein A/G-Sepharose mix (Amersham Biosciences) and the beads centrifuged. Supernatants were immuno-precipitated using 5 μl of anti-ARTS antibody for 4 h, anti-XIAP antibody, rabbit anti-myc antibody, or mouse IgG (negative control). Protein A/G Sepharose beads were added for 1 hour and washed four times with PBS. Antibodies against XIAP (as above), Myc (Santa Cruz), or anti-ARTS (NT) antibodies directed against the common N′ terminus of ARTS and H5 (ProSci Incorporated) were used for Western blot.

COS-7 cells [4] = assay: Immunofluorescence of ARTS and XIAP localization in COS-7 cells; assay type: cell-based, African Green Monkey; settings: apoptotic cells over-expressing ARTS versus not over-expressing
Protocol: Cells were fixed with 4% paraformaldehyde in PBS for 20 min at room temperature, washed with PBS, permeabilized with 0.5% Triton-X in PBS for 5 min, and incubated with primary antibodies for 2 hours at room temperature (rabbit polyclonal anti-ARTS (1:20,000; Sigma), monoclonal anti-ARTS, and/or monoclonal anti-XIAP (1:500; used in subsequent Examples). Cells were washed three times with PBS/0.1% Triton-X and incubated with FITC conjugated anti-mouse and Rhodamin^TX-conjugated anti-rabbit secondary antibodies (Jackson). Images were analyzed using a confocal laser microscope (Zeiss LSM 510). Mitochondria were visualized with MitoTracker® Red CMXRos (Molecular Probes/Invitrogen).
For caspase inhibition, we added […] of BOC-Asp(Ome)CH2F (Enzyme Systems Products) one hour prior to addition of the apoptotic agents.

CIAP = assay: Interaction of ARTS with CIAP; assay type: binding
[5] = target: T2, Myc epitope-tagged wild-type XIAP (Homo sapiens (Human), UniProt P98170 1-497); assay: immunofluorescence co-localization by confocal microscopy in COS-7 cells transfected with AU5-ARTS and pcDNA3-Myc-XIAP, treated with etoposide
T2 construct: Expressed by transient transfection in COS-7 cells and used as cell lysate; The construct came from Dr. Colin S. Duckett; also called myc-tagged XIAP; mycXIAP
T2 sequence (P98170 whole entry): as above
Protocol: FIG. 5. ARTS and XIAP co-localize during apoptosis. Immunofluorescence assay of COS-7 cells with anti-ARTS antibody (left column) and anti-XIAP antibody (second column from left). Nuclei are stained with Dapi (third column from left). Merged images are shown in the right column. Cells were untreated (top panel) or treated with […] etoposide for 2 hours (middle panel) or 16 hours (lower panel). Cells were analyzed using confocal microscopy (magnification 60). Non-apoptotic cells had very little overlap between ARTS and XIAP staining (top panel), with ARTS primarily localized to mitochondria and XIAP staining cytoplasmic, with some peri-nuclear concentration. Two hours after induction of apoptosis, co-localization of ARTS and XIAP occurred primarily near the nucleus (middle panel). After 16 hr both proteins perfectly co-localized in the nucleus.
To confirm the finding that ARTS-XIAP complexes exist in apoptotic cells, COS-7 cells transfected with AU5-ARTS and pcDNA3-Myc-XIAP were visualized by confocal microscopy. Apoptosis was induced with etoposide, and cells were stained after 2 and 16 hours. In non-apoptotic cells, ARTS and XIAP had distinct, essentially non-overlapping distributions, with ARTS primarily localized to mitochondria, whereas XIAP was localized to the cytoplasm, with some peri-nuclear concentration (FIG. 5, top panel). […]

B1: AU5-ARTS (other)
chain: MIKRFLEDTTDDGELSKFVKDFSGNASCHPPEAKTWASRPQVPEPRPQAPDLYDDDLEFRPPSRPQSSDNQQYFCAPAPLSPSARPRSPWGKLDPYDSSEDDKEYVGFATLPNQVHRKSVKKGFDFTLMVAGESGLGKSTLVNSLFLTDLYRDRKLLGAEERIMQTVEITKHAVDIEEKGVRLRLTIVDTPGFGDAVNNTECWKPVAEYIDQQFEQYFRDESGLNRKNIQDNRVHCCLYFISPFGHGYGPSLRLLAPPGAVKGTGQEHQGQGCH
notes: Expressed in transfected COS-7 cells and used as lysate or stained in cells; also called pEF1-AU5-ARTS; AU5-tagged ARTS; not shown: AU5 tag attached to the N' terminus of ARTS
caspase-3 activity (K562 cells; expression of ARTS in the absence of pro-apoptotic stimuli, K562 cells): little or no effect
caspase-3 activity (K562 cells; over-expression of ARTS, K562 cells treated with ara-C): increased caspase-3 activity
caspase-3 activity (A549 cells; expression of ARTS in the absence of pro-apoptotic stimuli, A549 cells): little or no effect
caspase-3 activity (A549 cells; over-expression of ARTS, A549 cells treated with TGF-β): increased caspase-3 activity
caspase-3 activity (COS-7 cells [1]; expression of ARTS in the absence of pro-apoptotic stimuli, COS-7 cells): little or no effect
caspase-3 activity (COS-7 cells [1]; over-expression of ARTS, COS-7 cells treated with etoposide): increased caspase-3 activity
ARTS-XIAP binding, direct or not (XIAP [2]): direct
interaction of endogenous ARTS and XIAP (XIAP [3]): interact with each other
XIAP staining in the nucleus (COS-7 cells [4]): significantly higher levels in the nucleus
interaction with CIAP (CIAP): interact with ARTS
binding result [5]: binds
